Test: yeast display, Sf9 membrane polyspecificity reagent, FACS + sequencing; frameworks hold sequencing errors
In short: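 Genes from sorted yeast were amplified by colony PCR, read by MiSeq 2 × 250 sequencing and filtered on CDR length. These cells carried a synthetic nanobody library in Saccharomyces cerevisiae BJ5465 and were sorted by FACS into low and high (top ~1%) gates on anti-HA and streptavidin fluorescence. Polyreactivity is labelled according to the gate of origin.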

Sequence	polyreactivity (PSR sort gate)
QVQLVESGGGLVQAGGSLRLSCAASGFTFFRNAMGWYRQAPGKERELVAAISGSGGSTYYADSVKGRFTISRDNATNTVYLQMNSLIPVDTAVYYCATYSYPAKVREAYNYWGQGTQVTVSS	low polyreactivity
QVQLVESGGGLVQAGGSLRLSCAASGGTFIRYAMGWYRQAPGKEREFVAAISASGGSTYYADSVKGRFTISRDNAKNTVYLQMNSLKPEDTAVYYCAARRTNLPVKFYYWGQGTQVTVSS	high polyreactivity
QVQLVESGGGLVQAGGSLRLSCAASGITFGPYAMGWYRQAPGKERELVAAISAGGGSTYYADSVKGRFTISRDNAKNTVYLQMNSLKPEDTAVYYCAAYLLHHYGGPEYYYWGQGTQVTVSS	high polyreactivity
QVKLVESGGGLVQAGGSLRLSCAASGRTFYIYAMGWYRQAPGKERELVAAITYGGGRTFYADSVKGRFTISRDNAKNTVYLQMNSRKPEDTAVYYCAATVRGKRSTYDYWGQGTQVTVSS	high polyreactivity
QVQLVESGGGLVQAGGSLRLSCAASGFTFQYYTMGWYRQAPGKERELLAAITYSGSTYYADSVKGRFTISRDNAKNTVYLQMNSLKPEDTAVYYCNVYRGRYLYAWRPLGYWGQGTQVTVSS	high polyreactivity
QVQLVESGGGLVQAGGSLRLSCAASGRIFSAYAIGCYRQSPWKERELVSAISRSGGRTYYADSVKGSFTISRDNAKNTVYLQMNSLKPEDTAVYYCAAARFAIVRGDYCGQGTQVTVSS	high polyreactivity
QVQLVESGGGLVQAGGSLRLSCAASGSTFSYYDMGWYRQAPGKERELVAAISWNGGTTYYADSVKGRFTISRDNAKNTVYLQMNSLKPEDTAVYYCAATWDFYWAPDDSWGQGTQVTVSS	low polyreactivity
QVQLVESGGGLVQAGGSLRVSCAASGISFGHYTMGWYRQATGKERELVATITTSGGRTYYADSVKGRFTISRDNAKNTVYLQMNSLKPEDTAVYYCATLSWYPFEYWGQGTQVTVSS	high polyreactivity
QVQLVESGGGLVQEGGSLRLICAASGLIFRTYTMGWYRQAPGKERELVATITRRGGTTYYADSVKGRFTISRDNAKNTVYLQMNSLKPEDTAVYYCAKSPYYTWKYDYWGQGTQVTVSS	high polyreactivity
QFQLEESGGGLVQAGGSLRLSCDASGIIINYYAMGWYRQAPGKERELVAAIRISDTTYYADSVKGRFTISRDNAKNTVYLQMNSLKPEDTAVYYCNTLYYYYYGEVYVRDYDYWGQGTHVTVSS	low polyreactivity
QVQLVESGGGLVQAGGSLRLSCAASGRIFWEYAMGWYRQAPGKERELVAAITWRVGSTYYADSVKGRFTISRDNAKNTVYLQMNSLKPEDTAVYYCAAARYLSIYNYWGQGTQVTVSS	low polyreactivity
QVQLVESGGGLVQAGGSLRLSCAASGRIFSKNVRGWYRQAPGKERELVADISNTGRTYYADSVKGRFKISRDNAKNTVYLQMNSLKPEDTAVYYCAADIAYRYFAVEFSSYTGDYWGQGTQVTVSS	low polyreactivity
QVQLVESGGGLVQAGGSLRLSCAASGIIFYRNTMGWYRQAPGKERELVAAIRRGGNTYYADSVKGRFTISRDNAKNTVYLQMNSLKPEDTAVYYCAAEDYNGRQYYHKMDYWGQGTQVTVSS	high polyreactivity
QVQLVESGGGLVQAGGSLRLRCAASGRIFRPYTMGWYRQAPGKERELVAAITSGSSTNYADSVKGRFTISRDNAKNTVYLQMNSLKPEDTAVYYCAVKVRIFASYYPFYYWGQGTQVTVSS	high polyreactivity
QVQLVESGGRLVQAGGSLRLTCAASGNIFANNAMGWYRQAPGTERELVAAISQSGGNTYYEDSVKGRFTISRDNAKNTVYLQMNSLKPEDTAVYYCNAKTYGYNYDSWGQGTQVTVSS	low polyreactivity
QVQLVESGGGLVQAGGSLRLSCAASGSTFGGYAMGWYRQAPGKERELVAAISSGGSTYYADSVKGRFTISRDNAKNTVYLQMNSLKPEDTAVYYCAAEGIYFILWYGYVEYDYWGQGTQVTVSS	low polyreactivity
QVQLVESGGGLVQAGGSLRLSCAASGRTFVANDMAWYTHAPGKERELFAAISYSGGSTYYADSVKGRFTISRDNAKNTVYLQMNSLKPEDTEVYYCNAYYYGGVRKQHGYWGQVTQVTVSS	low polyreactivity
QVQLVVSGGGLVQAGGSLRLSCSASGYTFWRYAMGWYRQAPGKERELVAAISQSGGRTYYADSVKGRYTISRDNAKNTVYLQMNSLKPEDTAVYFCATSYSQGDDYWGQGTQVTVSS	high polyreactivity
QVELVESGGGLVQAGGSLRLSCAASGRIFSPNAMGWYRQAPGKERELVAALTGSGGTTYYADSVKGRFKISRDNAKNTVYLQMNSLKREDTAVYYCAADLYPFSRNPRYQFLYNYWGQGTQVTVSS	low polyreactivity
QVQLVESGGGLVQAGGSLRLSCAASGRIFGYYAMGWYRQAPGKEREWVAAINSGGSTNYADSVKGRFTISRDNAKNTVYLQMNSLIPEDTAVYYCAAGWRYRYFRSRNFYPYYYWGQGTQVTVSS	high polyreactivity

Sequence	polyreactivity (PSR sort gate)
QVQLVESGGGLVQAGGSLRISCAASGSIFRYYAMGWYRQAPGKEREFVDSITYRGGRTYYADSVKGRFTISRDNAKNTVYLQMNSLKPEDTAVYYCAARYRVRYYERDYWGQGTQVTVSS	high polyreactivity
QVQLVESGGGLVQAGGSLRLSCAASGSIFNYNTMGWYRQAPGKERELVADISWSGGSTYYADSVKGRFTISRDNAKNTVYLQMNSLKPEDTAVYYCAADFGLFPYVGTGYYYWGQGTQVTVSS	low polyreactivity
QVQLVESGGGLVQAGGSLRLSCAASGRIFRYYAMGWYRQAPGKESELVAAITASGGSTYYADSVKGRFTISRDNAKNTVYLQMNSLKPEDTAVYYCATEYVVYRSWVPKYGYWGQGTQVTVSS	high polyreactivity
QVQLVESGGGLVQAGGSLRLSCAASGFTLKRYAMGWYRQAPGKERELVAAISTGGSTYYADSVKGRFTISRDNAKNTVYLQMNSLKPEDTAVYYCAAKRYNRLRSYRYSDREDYWGQGTQVTVSS	high polyreactivity
QVQLVESGGGLVQAGGSLRLSCAASGLIFLGNAMGWYRQAPGKERELVAAISRSGGTTYYADSVKGRFTISRDNAKNTVYLQMNSLKPEDTAVYYCNAYNPYYRATVSSRGYGYWGQGTQVTVSS	high polyreactivity
QVQLVESGGGIVQAGGSLRLSCDASGNTFKGYAMGWYRQAPGTESELVAAISWSGSSTYYADSLKGRFTISRDNAKNTVYFQLNSLKQEDPAVFSCNRKYLGRYASVYGYGYWGQGTQVTVSS	high polyreactivity
QVQLVESGGGIVQAGGSLRLSCAASGLTFRYYAMGWYRQAPGKERELVAAISGSGGSTYYADSVKGRFTISRDNAKNTVYLQLNRLKPEDTAVYYFASENESSSWGDYAMGYWGQGTQVTVST	high polyreactivity
QVQLVESGGGLVQAGGSHRLSSAASGGIFGKYAMGWYRQAPGKEMDLVAAITWNGGRTYYADSVKGRFTISRDNAKYTLYLQMNSLKPVDTAVHFCAVDDAYPDRYDYWGQGSQVTVSS	high polyreactivity
QVQLVESGGGLVQAGGSLRLSSAASGRIFGRYAMGWYRQAPGKERELVDAITCTGGTTYYADSVKGRFTISRDNAKNTVYLQMNSLKPEDTAVYYCAARQGYGIYGDYYYWGQGTHVTVSS	high polyreactivity
QVQLVESGGGLVQAGGSLRLSCAASGSNFYSYAMGWYRQAPGKERELVAAITGDGGSTYYADSVKGRFTISRDNAKNTVYLQRNSLKPEDTAVYYCAVPHTYRRYDYWGQGTQVTVSS	low polyreactivity
QVQLVESGGGLVQAGGSLRLSCAASGFTFGLYAMGWYRQAPGKERELVAAISWSGDNTYYADSVKGRFTISRDNAKNTVYLQMNSLKPEDTAVYYCAKVTKRNQGYYYWGQGTQVTVSS	high polyreactivity
QVQLVESGGGLVQEGGSLRLSCAASGRIFNGYAMGCYRQAPGKERELVAAINSSGGSTYYADSVKGRFTISRDNAKNTVYLQMNSLKPEDTAVYYCARVSYHYRTYDYWGQGTQVTVSS	high polyreactivity
QGQLVESGGGLVQAGGSLRLSCAASGSTSGKNAMGWYRQAPGQERELVAVITYSGSRTYYADSVKGRFTISRDNAKNTVYLQMNSLKPEDTAVYYCATRGLKTYQAYDYWGQGTQVTVSS	high polyreactivity
QVQLVESGGGLVQAGGSLRLSCAASGRIFADNGMGWYRQAPGKERELVASITSSGGDTYYADSVKGRFTISRDNAKNTVYLQMNSLKPEDTAVYYCATECSWLFYGVWVVTFGDDYWGQGTQVTVSS	low polyreactivity
QVQHVESGGGLVQAGGSLRLSCAASGRTFYKNTMGWYRQAPGKERELVAGISQRGGRTYYADSVKGRFTISRDNAKNTVYLQMNSLEPEDTAVYYCNKRRAAGGFPFDYWGQGTQVTVSS	high polyreactivity
QVQLVESGGGLVQAGGSLRLSCAASGFTFYGNALGWYRQAPGKARELVAAISRSGGSTYYADSVKGRFTISRDNAKNTVYLQMNSLKPDDTAVYYCAVYVRKWYAVTDQYSGSDYWGQGTQVTVSS	high polyreactivity
QVQLVESGGRLVQAGGSLRLSCAASGRTFGSYAMGWFRQAPGKERELVATIRNSGGISYYADSVKGRFTISRDTAKNTVYLQMNSLKPEDTAVYDCAKLGRYGYDYWGQGTQVTVSS	high polyreactivity
QVQLVVSGGGLVQAGGSIRLSCAASGRIFFYNAMGWYRQAPGKERELVAGISSGGGSTYYADSVKGRFTISRDNAKNTVYLQLNSLKPDDPAVYYCNKVVYSYSVGVGEYDYWGQGTQVTVSS	high polyreactivity
QVQLVESGVGLVQAGGSLRLSSAASGRILRQYAMGWYRQAPGKERELVAAITSSGGSTYYADSVKGRFTISRDNAKNTVYLQMNSLKPEDTAVYYCNARLRGAKYDYWGQGTQVTVSS	high polyreactivity
QVQLVESAAGLVQAGGSLRLSCAASGITFFQYTMGWYRQAPGKERELVAAISTSGARTYYADSVKGRFTISRDNAKNTVYLQMNSLKPEDTAVYYCAARTWRRPYYRPRYEYWAQGTQVTVSS	high polyreactivity

— the nanobody polyreactivity screen of Harvey et al. (2022)
